Measurements from patent publication US11306156.
“And” between values parts separate entries of the source, which are not always exact repeats. Equal values may be shown once.

Experiments:
[1] = biological target: D3H44 light chain Q124E_V133E, N-terminal HA or FLAG tag; assay: LCCA, L1:L2 DNA 1:3, SPR of light chain tags; competing light chain m14
[2] = biological target: D3H44 light chain Q124R_T178R, N-terminal HA or FLAG tag; assay: LCCA, L1:L2 DNA 1:9, SPR of light chain tags; competing light chain m19
[3] = biological target: D3H44 light chain Q124E_V133E, N-terminal HA or FLAG tag; assay: LCCA, L1:L2 DNA 1:9, SPR of light chain tags; competing light chain m14
[4] = biological target: D3H44 light chain Q124E_S176L_T180E, N-terminal HA or FLAG tag; assay: LCCA, L1:L2 DNA 1:3, SPR of light chain tags; competing light chain m12
[5] = biological target: D3H44 light chain Q124R_T178R, N-terminal HA or FLAG tag; assay: LCCA, L1:L2 DNA 1:3, SPR of light chain tags; competing light chain m19
[6] = biological target: D3H44 light chain Q124R_Q160K_T178R, N-terminal HA or FLAG tag; assay: LCCA, L1:L2 DNA 1:3, SPR of light chain tags; competing light chain m18
[7] = biological target: D3H44 light chain Q124E_S176L_T180E, N-terminal HA or FLAG tag; assay: LCCA, L1:L2 DNA 1:9, SPR of light chain tags; competing light chain m12
[8] = biological target: D3H44 light chain Q124R_Q160K_T178R, N-terminal HA or FLAG tag; assay: LCCA, L1:L2 DNA 1:9, SPR of light chain tags; competing light chain m18
[9] = biological target: D3H44 light chain Q124K_T178R, N-terminal HA or FLAG tag; assay: LCCA, L1:L2 DNA 1:3, SPR of light chain tags; competing light chain m11
[10] = biological target: D3H44 light chain Q124R_T178K, N-terminal HA or FLAG tag; assay: as above
[11] = biological target: D3H44 light chain Q124R_T178R, N-terminal HA or FLAG tag; assay: as above
[12] = biological target: D3H44 light chain Q124E_T180E, N-terminal HA or FLAG tag; assay: LCCA, L1:L2 DNA 1:3, SPR of light chain tags; competing light chain m14
[13] = biological target: D3H44 light chain Q124E_Q160E_T180E, N-terminal HA or FLAG tag; assay: LCCA, L1:L2 DNA 1:3, SPR of light chain tags; competing light chain m12
[14] = biological target: D3H44 light chain Q124E_T180E, N-terminal HA or FLAG tag; assay: as above
[15] = biological target: D3H44 light chain Q124E_T180E, N-terminal HA or FLAG tag; assay: LCCA, L1:L2 DNA 1:3, SPR of light chain tags; competing light chain m10
[16] = biological target: D3H44 light chain Q124E_Q160E_T180E, N-terminal HA or FLAG tag; assay: LCCA, L1:L2 DNA 1:9, SPR of light chain tags; competing light chain m15
[17] = biological target: D3H44 light chain Q124K_T178R, N-terminal HA or FLAG tag; assay: LCCA, L1:L2 DNA 1:9, SPR of light chain tags; competing light chain m11
[18] = biological target: D3H44 light chain Q124R_T178K, N-terminal HA or FLAG tag; assay: as above
[19] = biological target: D3H44 light chain Q124R_T178R, N-terminal HA or FLAG tag; assay: as above
[20] = biological target: D3H44 light chain Q124R_Q160K_T178R, N-terminal HA or FLAG tag; assay: LCCA, L1:L2 DNA 1:3, SPR of light chain tags; competing light chain m13
[21] = biological target: D3H44 light chain Q124K_T178R, N-terminal HA or FLAG tag; assay: as above
[22] = biological target: D3H44 light chain Q124R_T178R, N-terminal HA or FLAG tag; assay: as above
[23] = biological target: D3H44 light chain T178R, N-terminal HA or FLAG tag; assay: as above
[24] = biological target: D3H44 light chain Q124E_Q160E_T180E, N-terminal HA or FLAG tag; assay: LCCA, L1:L2 DNA 1:9, SPR of light chain tags; competing light chain m12
[25] = biological target: D3H44 light chain Q124E_Q160E_T180E, N-terminal HA or FLAG tag; assay: LCCA, L1:L2 DNA 1:3, SPR of light chain tags; competing light chain m16
[26] = biological target: D3H44 light chain Q124E_Q160E_T180E, N-terminal HA or FLAG tag; assay: LCCA, L1:L2 DNA 1:3, SPR of light chain tags; competing light chain m15
[27] = biological target: D3H44 light chain Q124E_T180E, N-terminal HA or FLAG tag; assay: as above
[28] = biological target: D3H44 light chain Q124E_Q160E_T180E, N-terminal HA or FLAG tag; assay: LCCA, L1:L2 DNA 1:9, SPR of light chain tags; competing light chain m16
[29] = biological target: D3H44 light chain Q124R_Q160K_T178R, N-terminal HA or FLAG tag; assay: LCCA, L1:L2 DNA 1:3, SPR of light chain tags; competing light chain m20
[30] = biological target: D3H44 light chain Q124E_Q160E_T178E, N-terminal HA or FLAG tag; assay: LCCA, L1:L2 DNA 1:3, SPR of light chain tags; competing light chain m14
[31] = biological target: D3H44 light chain Q124E_V133E, N-terminal HA or FLAG tag; assay: LCCA, L1:L2 DNA 1:9, SPR of light chain tags; competing light chain m17
[32] = biological target: D3H44 light chain Q124R, N-terminal HA or FLAG tag; assay: LCCA, L1:L2 DNA 1:3, SPR of light chain tags; competing light chain m18
[33] = biological target: D3H44 light chain Q124R, N-terminal HA or FLAG tag; assay: LCCA, L1:L2 DNA 1:9, SPR of light chain tags; competing light chain m18
[34] = biological target: D3H44 light chain Q124E_V133E, N-terminal HA or FLAG tag; assay: LCCA, L1:L2 DNA 1:3, SPR of light chain tags; competing light chain m17

D3H44 Fab heavy chain L143E_K145T_Q179E_S188L, C-terminal ABD2-His6 tag
H1L1:H1L2 normalized median ratio [1]: 11 share of 100
H1L1:H1L2 normalized median ratio [2]: 90 share of 100
H1L1:H1L2 normalized median scalar value ln(r1/f1) [2]: 2.25
H1L1:H1L2 normalized median ratio [3]: 13 share of 100
H1L1:H1L2 normalized median ratio [4]: 13 share of 100
H1L1:H1L2 normalized median ratio [5]: 87 share of 100
H1L1:H1L2 normalized median scalar value ln(r1/f1) [5]: 1.9
H1L1:H1L2 normalized median ratio [6]: 89 share of 100
H1L1:H1L2 normalized median scalar value ln(r1/f1) [6]: 2.06
H1L1:H1L2 normalized median ratio [7]: 10 share of 100
H1L1:H1L2 normalized median ratio [8]: 87 share of 100
H1L1:H1L2 normalized median scalar value ln(r1/f1) [8]: 1.86

D3H44 Fab heavy chain Q179K, C-terminal ABD2-His6 tag
H2L2:H2L1 normalized median ratio [9]: 8 share of 100
H2L2:H2L1 normalized median ratio [10]: 11 share of 100
H2L2:H2L1 normalized median ratio [11]: 12 share of 100
H2L2:H2L1 normalized median ratio [12]: 96 share of 100
H2L2:H2L1 normalized median ratio [13]: 88 share of 100
H2L2:H2L1 normalized median ratio [14]: 96 share of 100
H2L2:H2L1 normalized median ratio [4]: 96 share of 100
H2L2:H2L1 normalized median ratio [15]: 96 share of 100
H2L2:H2L1 normalized median ratio [16]: 90 share of 100
H2L2:H2L1 normalized median ratio [5]: 4 share of 100
H2L2:H2L1 normalized median ratio [17]: 10 share of 100
H2L2:H2L1 normalized median ratio [18]: 7 share of 100
H2L2:H2L1 normalized median ratio [19]: 10 share of 100
H2L2:H2L1 normalized median ratio [20]: 4 share of 100
H2L2:H2L1 normalized median ratio [21]: 4 share of 100
H2L2:H2L1 normalized median ratio [22]: 4 share of 100
H2L2:H2L1 normalized median ratio [23]: 4 share of 100
H2L2:H2L1 normalized median ratio [24]: 90 share of 100
H2L2:H2L1 normalized median ratio [25]: 89 share of 100
H2L2:H2L1 normalized median ratio [26]: 92 share of 100
H2L2:H2L1 normalized median ratio [27]: 96 share of 100
H2L2:H2L1 normalized median ratio [28]: 93 share of 100

D3H44 Fab heavy chain L143E_K145T, C-terminal ABD2-His6 tag
H1L1:H1L2 normalized median ratio [29]: 59 share of 100
H1L1:H1L2 normalized median scalar value ln(r1/f1) [29]: 0.37
H1L1:H1L2 normalized median ratio [12]: 41 share of 100
H1L1:H1L2 normalized median ratio [30]: 41 share of 100
H1L1:H1L2 normalized median ratio [31]: 12 share of 100
H1L1:H1L2 normalized median ratio [20]: 59 share of 100
H1L1:H1L2 normalized median scalar value ln(r1/f1) [20]: 0.33 and 0.38
H1L1:H1L2 normalized median ratio [32]: 91 share of 100
H1L1:H1L2 normalized median scalar value ln(r1/f1) [32]: 2.37
H1L1:H1L2 normalized median ratio [33]: 88 share of 100
H1L1:H1L2 normalized median scalar value ln(r1/f1) [33]: 1.95
H1L1:H1L2 normalized median ratio [34]: 9 share of 100

D3H44 Fab heavy chain L143R, C-terminal ABD2-His6 tag
H2L2:H2L1 normalized median ratio [1]: 96 share of 100
H2L2:H2L1 normalized median ratio [3]: 93 share of 100
H2L2:H2L1 normalized median ratio [31]: 74 share of 100
H2L2:H2L1 normalized median ratio [6]: 4 share of 100
H2L2:H2L1 normalized median ratio [32]: 4 share of 100
H2L2:H2L1 normalized median ratio [8]: 7 share of 100
H2L2:H2L1 normalized median ratio [33]: 26 share of 100
H2L2:H2L1 normalized median ratio [34]: 96 share of 100
